Data on 19 molecules can be found in US20260151494A1 (ARO BIOTHERAPEUTICS, published 2026).

Test [1] concerns the target T1, human CD71 extracellular domain (human, UniProt P02786 89-760).
T1 construct: also called hCD71; CD71-ECD
The test is described as follows: primary ELISA; note: test concentration or dose not given here; signal over HSA control. For orientation: ELISA stands for enzyme-linked immunosorbent assay.

Test [2] deals with T2, human apical domain of CD71 (human, UniProt P02786 189-383, limits assumed).
T2 construct: domain: apical domain
T2 sequence (P02786 189-383 limits assumed): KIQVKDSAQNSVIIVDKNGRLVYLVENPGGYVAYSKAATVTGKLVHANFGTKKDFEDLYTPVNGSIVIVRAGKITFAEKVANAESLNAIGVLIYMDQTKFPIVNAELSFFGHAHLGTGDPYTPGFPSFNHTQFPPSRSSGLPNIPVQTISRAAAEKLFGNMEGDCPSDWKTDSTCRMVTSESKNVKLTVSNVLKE
Kind of test: primary ELISA; signal over HSA control. Note: test concentration or dose not given here.

The target in test [3] is T1, human CD71 extracellular domain. Kind of test: primary ELISA. Note: test concentration or dose not given here.
Test [4] concerns the target T2, human apical domain of CD71. The test is described as follows: primary ELISA. Note: test concentration or dose not given here.

T1 sequence (P02786 89-760): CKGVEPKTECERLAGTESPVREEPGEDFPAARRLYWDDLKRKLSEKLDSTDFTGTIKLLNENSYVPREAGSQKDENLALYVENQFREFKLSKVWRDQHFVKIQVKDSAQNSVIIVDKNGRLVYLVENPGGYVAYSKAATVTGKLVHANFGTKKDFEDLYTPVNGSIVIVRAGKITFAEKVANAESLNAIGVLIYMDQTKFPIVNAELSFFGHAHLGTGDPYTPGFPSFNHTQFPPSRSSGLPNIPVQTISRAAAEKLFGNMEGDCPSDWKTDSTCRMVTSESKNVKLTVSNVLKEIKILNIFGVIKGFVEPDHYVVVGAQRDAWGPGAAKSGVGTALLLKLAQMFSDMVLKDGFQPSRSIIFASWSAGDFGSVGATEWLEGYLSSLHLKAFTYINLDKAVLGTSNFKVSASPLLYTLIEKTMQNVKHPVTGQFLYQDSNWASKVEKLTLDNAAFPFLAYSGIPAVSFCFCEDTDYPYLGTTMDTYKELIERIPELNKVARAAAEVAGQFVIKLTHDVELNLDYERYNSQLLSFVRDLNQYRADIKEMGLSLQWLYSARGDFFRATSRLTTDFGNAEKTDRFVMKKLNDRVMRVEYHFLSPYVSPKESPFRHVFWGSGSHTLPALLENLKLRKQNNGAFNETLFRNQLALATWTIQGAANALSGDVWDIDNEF

B1: CD71-binding FN3 domain SEQ ID NO 394 (designed binder)
chain: MLPAPKNLVVSRVTEDSARLSWTAPDAAFDSFFIGYLEPQPPGEAIYLLVPGSERSYDLTGLKPGTEYNVTIQGVKGGFPSTPLEASFTT
As to B1, in test [1], the “hCD71:HSA” value was found to be 218 ratio. Also, the “Apical domain:HSA” value in test [2] turned out to be 430 ratio. The RLU in test [3] was 2.86e+06 RLU; in test [4] it was 5.66e+06 RLU.

B2: CD71-binding FN3 domain SEQ ID NO 416 (designed binder)
chain: MLPAPKNLVVSRVTEDSARLSWTAPDAAFDSFFIGYLEPQPPGEAIALYVPGSERSYDLTGLKPGTEYNVTIQGVKGGFPSLPLVATFTT
Consider B2, for which, in test [1], the “hCD71:HSA” value is 54 ratio. In addition, the “Apical domain:HSA” value in test [2] is 52 ratio. The RLU was 6.6e+06 RLU in test [3] and 6.32e+06 RLU in test [4].

B3: CD71-binding FN3 domain SEQ ID NO 405 (designed binder)
chain: MLPAPKNLVVSRVTEDSARLSWTAPDAAFDSFFIGYLEPQPPGEAIHLWVPGSERSYDLTGLKPGTEYNVTIQGVKGGFPSLPLSAFFTT
Take B3: in test [1], the “hCD71:HSA” value was found to be 108 ratio. In test [2], the “Apical domain:HSA” value was 193 ratio. The RLU in test [3] is 1.95e+06 RLU; in test [4], 3.47e+06 RLU.

B4: CD71-binding FN3 domain SEQ ID NO 410 (designed binder)
chain: MLPAPKNLVVSRVTEDSARLSWTAPDAAFDSFFIGYLEPQPPGEAIALWVPGSERSYDLTGLKPGTEYNVTIQGVKGGFPSQPLHAHFTT
For the molecule B4, the “hCD71:HSA” value in test [1] came to 46 ratio. In addition, in test [2], the “Apical domain:HSA” value was found to be 379 ratio. The values for the RLU in test [3] and in test [4] were 3.9e+06 RLU and 3.2e+06 RLU, respectively.

B5: CD71-binding FN3 domain SEQ ID NO 401 (designed binder)
chain: MLPAPKNLVVSRVTEDSARLSWTAPDAAFDSFFIGYLEPQPPGEAIALWVPGSERSYDLTGLKPGTEYNITIQGVKGGFPSMPLVANFTT
On to B5, for which the “hCD71:HSA” value in test [1] turned out to be 41 ratio. In addition, the “Apical domain:HSA” value in test [2] was determined as 42 ratio. For the same molecule, the RLU in test [3] stood at 5.64e+06 RLU; in test [4] it was 5.82e+06 RLU.

B6: CD71-binding FN3 domain SEQ ID NO 412 (designed binder)
chain: MLPAPKNLVVSRVTEDSARLSWTAPDAAFDSFFIGYLEPQPPGEAIGLLVPGSERSYDLTGLKPGTEYNVTIQGVKGGFPSHPLLAVFTT
Take B6: the “hCD71:HSA” value in test [1] came to 112 ratio. The “Apical domain:HSA” value in test [2] turned out to be 153 ratio. For the same molecule, the results for the RLU in test [3] and in test [4] were 4.37e+06 RLU and 6e+06 RLU, respectively.

B7: CD71-binding FN3 domain SEQ ID NO 404 (designed binder)
chain: MLPAPKNLVVSRVTEDSARLSWTAPDAAFDSFFIGYLEPQPPGEAIHLLVPGSERSYDLTGLKPGTEYNVTIQGVKGGFPSEPLLAIVTT
Consider B7, for which the “hCD71:HSA” value in test [1] turned out to be 122 ratio. Moreover, the “Apical domain:HSA” value in test [2] was 146 ratio. Besides, the figures for the RLU in test [3] and in test [4] were 4.72e+06 RLU and 5.66e+06 RLU, respectively.

B8: CD71-binding FN3 domain SEQ ID NO 409 (designed binder)
chain: MLPAPKNLVVSRVTEDSARLSWTAPDAAFDSFFIGYLEPQPPGEAIHLFVPGSERSYDLTGLKPGTEYNVTIQGVKGGFPSNPLSAQFTT
For B8, in test [1], the “hCD71:HSA” value worked out at 225 ratio. In addition, the “Apical domain:HSA” value in test [2] is 284 ratio. The RLU in test [3] is 4.91e+06 RLU; in test [4] it was 6.2e+06 RLU.

B9: CD71-binding FN3 domain SEQ ID NO 400 (designed binder)
chain: MLPAPKNLVVSRVTEDSARLSWTAPDAAFDSFFIGYLEPQPPGEAIHLFVPGSERSYDLTGLKPGTEYNVTIQGVKGGFPSGPLHATFTT
For the molecule B9, the “hCD71:HSA” value in test [1] was determined as 141 ratio. For the same molecule, the “Apical domain:HSA” value in test [2] amounted to 163 ratio. Further, the RLU in test [3] worked out at 5.67e+06 RLU; in test [4], 6.54e+06 RLU.

B10: CD71-binding FN3 domain SEQ ID NO 417 (designed binder)
chain: MLPAPKNLVVSRVTEDSARLSWTAPDAAFDSFFIGYLEPQPPGEAIQLFVPGSERSYDLTGLKPGTEYNVTIQGVKGGFPSDPLVASFTT
Consider B10, for which the “hCD71:HSA” value in test [1] stood at 305 ratio. The “Apical domain:HSA” value in test [2] was 417 ratio. Moreover, the figures for the RLU in test [3] and in test [4] were 4.51e+06 RLU and 6.17e+06 RLU, respectively.

B11: CD71-binding FN3 domain SEQ ID NO 395 (designed binder)
chain: MLPAPKNLVVSRVTEDSARLSWTAPDTAFDSFFIGYLEPQPPGEAIGLFVPGSERSYDLTGLKPGTEYNVTIQGVKGGFPSDPLSAFFTT
For the molecule B11, in test [1], the “hCD71:HSA” value is 72 ratio. Further, the “Apical domain:HSA” value in test [2] stood at 92 ratio. The figures for the RLU in test [3] and in test [4] were 5.11e+06 RLU and 6.59e+06 RLU, respectively.

B12: CD71-binding FN3 domain SEQ ID NO 414 (designed binder)
chain: MLPAPKNLVVSRVTEDSARLSWTAPDAAFDSFFIGYLEPQPPGEAIHLYVPGSERSYDLTGLKPGTEYNVTIQGVKGGFPSHPLIANFTT
Take B12: in test [1], the “hCD71:HSA” value is 86 ratio. Further, in test [2], the “Apical domain:HSA” value was determined as 79 ratio. Also, the RLU was determined as 6.71e+06 RLU in test [3] and 6.18e+06 RLU in test [4].

B13: CD71-binding FN3 domain SEQ ID NO 411 (designed binder)
chain: MLPAPKNLVVSRVTEDSARLSWTAPDAAFDSFFIGYLEPQPPGEAISLFVPGSERSYDLTGLKPGTEYNVTIQGVKGGFPSVPLSATFTT
For the molecule B13, the “hCD71:HSA” value in test [1] worked out at 261 ratio. In test [2], the “Apical domain:HSA” value was found to be 318 ratio. The values for the RLU in test [3] and in test [4] were 5.23e+06 RLU and 6.36e+06 RLU, respectively.

B14: CD71-binding FN3 domain SEQ ID NO 399 (designed binder)
chain: MLPAPKNLVVSRVTEDSARLSWTAPDAAFDSFFIGYLEPQPPGEAITLYVPGSERSYDLTGLKPGTEYNVTIQGVKGGFPSTPLTATFTT
Turning to B14, in test [1], the “hCD71:HSA” value was determined as 297 ratio. Also, the “Apical domain:HSA” value in test [2] was found to be 255 ratio. Moreover, the RLU in test [3] is 5.88e+06 RLU; in test [4], 5.04e+06 RLU.

B15: CD71-binding FN3 domain SEQ ID NO 398 (designed binder)
chain: MLPAPKNLVVSRVTEDSARLSWTAPDAAFDSFFIGYLEPQPPGEAIYLTVPGSERSYDLTGLKPGTEYNVTIQGVKGGFPSKPLTANFTT
As for B15, the “hCD71:HSA” value in test [1] was 132 ratio. For the same molecule, in test [2], the “Apical domain:HSA” value was determined as 129 ratio. In addition, the values for the RLU in test [3] and in test [4] were 2.12e+06 RLU and 2.07e+06 RLU, respectively.

B16: CD71-binding FN3 domain SEQ ID NO 396 (designed binder)
chain: MLPAPKNLVVSRVTEDSARLSWTAPDAAFDSFFIGYLEPQPPGEAIYLTVPGSERSYDLTGLKPGTEYNVTIQGVKGGFPSMPLSAIFTT
Consider B16, for which the “hCD71:HSA” value in test [1] stood at 165 ratio. In test [2], the “Apical domain:HSA” value stood at 183 ratio. The results for the RLU in test [3] and in test [4] were 2.23e+06 RLU and 2.47e+06 RLU, respectively.

B17: CD71-binding FN3 domain SEQ ID NO 408 (designed binder)
chain: MLPAPKNLVVSRVTEDSARLSWTAPDAAFDSFFIGYLEPQPPGEAIGLWVPGSERSYDLTGLKPGTEYNVTIQGVKGGFPSMPLSAIFTT
On to B17, for which the “hCD71:HSA” value in test [1] was determined as 116 ratio. In addition, in test [2], the “Apical domain:HSA” value is 165 ratio. Moreover, the RLU in test [3] is 2.26e+06 RLU; in test [4], 3.23e+06 RLU.

B18: CD71-binding FN3 domain SEQ ID NO 413 (designed binder)
chain: MLPAPKNLVVSRVTEDSARLSWTAPDAAFDSFFIGYLEPQPPGEAIYLRVPGSERSYDLTGLKPGTEYNVTIQGVKGGFPSAPLHAHFTT
B18: the “hCD71:HSA” value in test [1] came out at 287 ratio. The “Apical domain:HSA” value in test [2] amounted to 370 ratio. Further, the figures for the RLU in test [3] and in test [4] were 3.86e+06 RLU and 4.98e+06 RLU, respectively.

B19: CD71-binding FN3 domain SEQ ID NO 415 (designed binder)
chain: MLPAPKNLVVSRVTEDSARLSWTAPDAAFDSFFIGYLEPQPPGEAIHLQVPGSERSYDLTGLKPGTEYNVTIQGVKGGFPSMPLSAIFTT
For the molecule B19, in test [1], the “hCD71:HSA” value amounted to 501 ratio. Moreover, the “Apical domain:HSA” value in test [2] was 516 ratio. The RLU in test [3] is 3.51e+06 RLU; in test [4] it was 3.61e+06 RLU.
